Results as given in article PMC10450164 (Nucleic Acids Research, 2023).

B1: TFAP2A DBD-HSH tandem domain (aa 203-420) (domain or fragment)
chain: not shown
B2: TFAP2B DBD-HSH tandem domain (aa 219-457) (domain or fragment)
chain: not shown
B3: TFAP2A HSH domain (aa 279-411) (domain or fragment, human, UniProt P05549 279-411, looked up)
chain: GRRKAANVTLLTSLVEGEAVHLARDFGYVCETEFPAKAVAEFLNRQHSDPNEQVTRKNMLLATKQICKEFTDLLAQDRSPLGNSRPNPILEPGIQSCLTHFNLISHGFGSPAVCAAVTALQNYLTEALKAMDK

Key:
SEC = molecular target: the molecule itself; test: SEC
crystal structure = molecular target: the molecule itself; test: crystal structure

Row | Protein | stoichiometry N (SEC) | binding result (crystal structure)
1 | B1 | 2 | –
2 | B2 | – | binds
3 | B3 | 2 | –
